Data reported in patent publication US20190015518A1, “DRUG DELIVERY COMPOSITIONS AND METHODS” (priority 2016, published 2019).

Experiments:
[1] = Pharmacokinetics in three tumor-bearing dogs (three-compartmental model); format: in vivo, dog; settings: 10 mg/m2
Procedure: An open label, multiple dose/dosage phase I/II trial of 75HA-Lys-Pt was conducted at the University of Missouri Veterinary Medical Teaching Hospital (MU-VMTH). The clinical trial protocol was approved by the University of Missouri ACUC. Dogs of any age, sex, or breed presented to the MU-VMTH oncology service with the a histological diagnosis of anal sac carcinoma, oral squamous cell carcinoma, oral melanoma, nasal carcinoma, or digital squamous cell carcinoma with a performance score of 0 or 1 (0: normal activity; 1: restricted activity; 2: compromised activity; 3: disabled; 4: dead) and without comorbid conditions that would limit life expectancy to less than nine weeks were offered enrollment in the trial.
Following complete staging, client consent was obtained to enroll each dog in the study. Once enrolled in the study, longest tumor diameters of all target lesions were recorded. An indwelling jugular catheter was placed to facilitate collection of blood samples. Dogs received 10 to 30 mg/m^2 intra-tumoral injections through 1 to 3 pre-placed 22-ga spinal needles once every three weeks for up to four planned doses. Dogs were sedated or anesthetized for each treatment, and a 2-mL blood sample was collected from the jugular catheter at 0.5, 1, 2, 4, and 24 hours following drug administration. Blood samples were spun, plasma was collected and frozen within two hours. A CBC and renal profile with urinalysis were conducted prior to and one week after each treatment. Some dogs experiencing apparent adverse effects of drug administration had complete biomedical profiles performed. Tumor measurements were collected three weeks following each administration to assess response.
Serum samples of 3 dogs were diluted 20-fold in 1% HNO3, and vortexed prior to inductively coupled plasma mass spectrometry (ICP-MS) analysis. The platinum concentration of serum was determined using an Agilent 7500i ICP-MS. A calibration curve was generated from 1 to 50 ppb platinum (acceptable criterion R^2>0.995) and 50-ppb bismuth was used as an internal standard. […] The pharmacokinetics were modeled using a SAAM II three-compartmental model.
The serum pharmacokinetics data was modeled using a three-compartmental model with an injection site compartment (q3), a serum compartment (q1), and a tissue compartment (q2). […] Three transfer constants, k(1,3), k(1,2) and k(2,1), and one loss constant, k(0,1), were assigned to the model. The k(1,3) defined the drug absorption process allowing the transfer of HA-Pt from the injection site compartment to the serum compartment. A reversible k(3,1) was not necessary as a sink condition was assumed. Due to the concentration gradient between the injection site and the central serum compartments, drug redistribution back to the injection site was not expected. […] Drug transfer and equilibrium between plasma and tissue compartments were represented by k(1,2) and k(2,1). Post-injection drug diffused from the tissue at the injection site to the blood capillaries and the lymphatic vessels. Eventually the drug molecules entered the systemic circulation and distributed into organs. It is likely that the highly perfused organs, such as liver and kidneys, established equilibrium sooner than organs with low blood flow.

[2] = Rehydration time of lyophilized HA-Lys-Pt; format: physicochemical
Procedure: 33HA-Lys-Pt (MW of HA: 33 kDa) from batch 33_01015 was used to evaluate the impact of trehalose as an excipient and lyoprotectant. […] The solution was freeze-dried using the following program. Samples were frozen in a −80° C. freezer for 4 hours. The vials were transferred to a freeze dryer and kept at −40° C. for 1.5 hours. The condenser point was set at −70° C. The vacuum setpoint was 100 mTorr. The parameters for primary drying were 30 hours at −35° C. and 10 mTorr. The parameters for secondary drying were 5 hours at 2° C. and 10 mTorr, followed by another 5 hours at 8° C. and 10 mTorr. […] During rehydration, 500-μL of water was added to the vial and the sample was gently shaken. The small molecular weight platinum species such as mono-aquated and di-aquated platinum were separated from the reconstituted 33HA-Lys-Pt using a Centricon centrifugal filter unit (10,000 MWCO, 4000 rpm for 10 min at 4° C.) and analyzed by an HPLC assay. The mobile phase was sodium phosphate solution (10-mM, pH 3.0) at a flow rate of 0.25 mL/min on an Alltech® 250 mm×4.6 mm M/M RP8/cation column thermostated at 25° C.
The solution was freeze-dried using the following program. Samples were frozen in a −80° C. freezer for 4 hours. The vials were transferred to a freeze dryer and kept at −40° C. for 1.5 hours. The condenser point was set at −70° C. The vacuum setpoint was 100 mTorr. The parameters for primary drying were 30 hours at −35° C. and 10 mTorr. The parameters for secondary drying were 5 hours at 2° C. and 10 mTorr, followed by another 5 hours at 8° C. and 10 mTorr. […] During rehydration, 500-μL of water was added to the vial and the sample was gently shaken.
One milliliter of samples were used for all tests. The trehalose percent weights varied from 8-20% wt. The pHs included 4.5, 5, 6, and 7. The solution was freeze-dried using the aforementioned freeze-drying program. […] During rehydration, 1-mL of water was added to the vial and the sample was gently shaken. Diaquated platinum species were separated using the aforementioned Centricon units and analyzed using the aforementioned HPLC method.
Other sample freezing methods were also tested. For examples, samples were gradually frozen in ethanol bath at −80° C. and lyophilized. In addition, samples were flash frozen using liquid nitrogen and lyophilized.
Rehydration using one half of the original sample volume was tested.
Besides trehalose, PEG 200 (2 and 5% wt) was tested as a second excipient to aid the rehydrate process.

Substance: HA-cis-[Pt(NH3)2(N^α-Acetyl-L-Lysine)] [75HA-Lys-Pt]
- AUC ([1]; Dog 1 (28.7 kg)): 4 µg·h/mL
- Cmax ([1]; Dog 1 (28.7 kg)): 0.174 µg/mL
- Tmax ([1]; Dog 1 (28.7 kg)): 60 min
- Vss ([1]; Dog 1 (28.7 kg)): 2 L/kg
- AUC ([1]; Dog 2 (25.2 kg)): 0.9 µg·h/mL
- Cmax ([1]; Dog 2 (25.2 kg)): 0.155 µg/mL
- Tmax ([1]; Dog 2 (25.2 kg)): 30 min
- Vss ([1]; Dog 2 (25.2 kg)): 33.4 L/kg
- AUC ([1]; Dog 3 (6.5 kg)): 2.2 µg·h/mL
- Cle ([1]; Dog 3 (6.5 kg)): 0.092 L/h/kg
- Cmax ([1]; Dog 3 (6.5 kg)): 0.128 µg/mL
- Tmax ([1]; Dog 3 (6.5 kg)): 30 min
- Vss ([1]; Dog 3 (6.5 kg)): 8.9 L/kg
- Rehydration Time ([2]; 1.46 mg/mL, pH 6, trehalose 0% wt): >48 h
- Rehydration Time ([2]; 1.46 mg/mL, pH 6, trehalose 5% wt): Ca. 12 hour
- Rehydration Time ([2]; 1.46 mg/mL, pH 6, trehalose 10% wt): 7 h
- Rehydration Time ([2]; 1.46 mg/mL, pH 6, trehalose 15% wt): 6 h
- Rehydration Time ([2]; 1.46 mg/mL, pH 7, trehalose 5% wt): ca. 2.5 hour
- Rehydration Time ([2]; 1.46 mg/mL, pH 7, trehalose 10% wt): 1 h
- Rehydration Time ([2]; 1.46 mg/mL, pH 7, trehalose 15% wt): 1 h
- Rehydration Time ([2]; 1.99 mg/mL, pH 4.5, trehalose 15% wt): 26 h
- Rehydration Time ([2]; 1.99 mg/mL, pH 4.5, trehalose 20% wt): 26 h
- Rehydration Time ([2]; 1.99 mg/mL, pH 5, trehalose 15% wt): 26 h
- Rehydration Time ([2]; 1.99 mg/mL, pH 5, trehalose 20% wt): 26 h
- Rehydration Time ([2]; 1.99 mg/mL, pH adjusted to 5 at rehydration, trehalose 10% wt): 6 to 20 h
- Rehydration Time ([2]; 1.99 mg/mL, pH adjusted to 6 at rehydration, trehalose 10% wt): 6 to 20 h
- Rehydration Time ([2]; 1.99 mg/mL, pH adjusted to 7 at rehydration, trehalose 10% wt): 6 to 20 h
- Rehydration Time ([2]; 3 mg/mL, pH 5, trehalose 15% wt): >48 h
- Rehydration Time ([2]; batch 75_0706, 1.06 mg/mL, pH 5, trehalose 7.5% wt, rehydration using half the original volume): 7 h
- Rehydration Time ([2]; batch 75_0706, 1.06 mg/mL, pH 5, trehalose 10% wt, rehydration using half the original volume): 7 h
- Rehydration Time ([2]; batch 75_0706, 2.13 mg/mL, pH 5, trehalose 15% wt, Ethanol bath): >48 h
- Rehydration Time ([2]; batch 75_0706, 2.13 mg/mL, pH 5, trehalose 20% wt, Ethanol bath): >48 h
- Rehydration Time ([2]; batch 75_0706, 2.13 mg/mL, pH 5, trehalose 20% wt, PEG200 2% wt): 48 h
- Rehydration Time ([2]; batch 75_0706, 2.13 mg/mL, pH 5, trehalose 20% wt, PEG200 5% wt): 48 h
- Rehydration Time ([2]; batch 75_0706, 3.00 mg/mL, pH 5, trehalose 15% wt): >48 h
